In experiment [1] the target is pentameric IgM HB617 (UniProt P01591).
Experiment [2] has the same target. The experiment in a line: ELISA; competition: IgM coated (2 µg/mL); serially diluted ACB or AD2 mixed with a constant sC1q (10 µg/mL final); TBS with 2% PVP, 5 mM CaCl2, 1.5 mM MgCl2; room temperature; bound sC1q detected with anti-C1q HRP; relative IC50: OD at the highest mimetic value as 100%, without mimetic as 0%, approximate values. A general note: ELISA stands for enzyme-linked immunosorbent assay.

Experiment [3] has as its target hexameric IgM 2G12 (human). The description is as above.
Experiment [4] deals with pentameric IgM 2G12 (UniProt P01591). The description is as above.

In experiment [1], “C1q mimetic ACB (single-chain globular region of C1q) (from UniProt P02745 115-245; P02747 115-245; P02746 117-253)” registered a competitive complement activation ELISA, reduction in C4b deposition by ACB against sC1q on coated 5IgM HB617; 8-fold (20% reduction) to 16-fold (w/w) excess of ACB over sC1q of 60%. For the same substance, the maximal inhibition of sC1q binding in experiment [2] was 70%; in experiment [3], 77%; in experiment [4], 59%. Further, the relative IC50 in experiment [2], in experiment [3] and in experiment [4] was 1.3 µg/mL throughout. In experiment [3], this substance displayed a percent inhibition of sC1q binding at 2.5–20 µg/mL ACB (lower end) of 67 to 77%.

Take “C1q mimetic ACB-AD2 (ACB fused to domain 2 of human serum albumin) (from UniProt P02745 115-245; P02747 115-245; P02746 117-253; P02768 211-403)”: the values for the maximal inhibition of sC1q binding in experiment [2], in experiment [3] and in experiment [4] were 39%, 47% and 23%, respectively. Moreover, the results for the relative IC50 in experiment [2], in experiment [3] and in experiment [4] were 1.3 µg/mL, 0.6 µg/mL and 1.3 µg/mL, respectively.

A word on the relative IC50: it is the concentration at the midpoint between the plateaus of the fitted inhibition curve.
